Numbering of substitutions follows the chain as printed. Numbers in names are those of the source.
B1: H4H14813N (antibody, human IgG4, V domains shown)
VH: QVQLQQWGAGLLKPSETLSLTCAVYGGSFSGYYWNWIRQPPGKGLEWVGEISHRGSTNYNPSLKSRVTISLDTSKNQFSLKLTSVTAADTAVYYCSRDEELEFRFFDYWGQGTLVTVSS
VL: EIVLTQSPATLSLSPGERATLSCRASQSVSSYLAWYQQKPGQAPRLLVYGASNRATGIPARFSGSGSGTDFTLTISSLEPEDFAFYYCQQRSNWPLTFGGGTKVEIK
notes: H4H = human IgG4 Fc with S108P hinge mutation
B2: H4H15483P (antibody, human IgG4, V domains shown)
VH: QVQLQQWGAGLLPPSETLSLICAVYGGSFSGYYWSWIRQPPGKGLEWIGEINHRGSTNYNPSLKSRATISVDTSKNQFSLKLSSVTAADTAVYYCSRGEDYYDSSGYSYYFDYWGQGTLVTVSS
VL: B1 VL with V48I, G50D, F85V
notes: as for B1
B3: H4H17819P (antibody, human IgG4, V domains shown)
VH: EVQLVESGGGLVQPGGSLRLSCVASGFTFSLYAMTWVRQVPGKGLEWVSTISGSGGGTYYTDSVKGRFTISRDNSKNTLYLQMNSLRADDTAVFYCTKESTTGTYSYFYGMDVWGQGTTVTVSS
VL: DIQMTQSPSSLSASVGDRVTITCRASQTISSYLNWYQQKPGKAPKLLIYAASSLQSGVPSRFSGSGSGTDFTLTLSGLQPEDFATYYCQQSYSTPLTFGGGTKVEIK
notes: as for B1
B4: H4H17823P (antibody, human IgG4, V domains shown)
VH: EVQLLESGGGLVQPGGSLRLSCAASGFTFRSYAMSWVRQAPGKGLEWVSVISGGGGRTYYTDSVKGRFTISRDNSKSMLYLQMNSLRAEDTAIYYCAKERVTGIDHYYYGVDVWGQGTTVTVSS
VL: B3 VL with T28S, A51T, G66A, T74A, L75I, G77S, S93T
notes: as for B1
B5: H4H17826P2 (antibody, human IgG4, V domains shown)
VH: EVQLVESGGGLVQPGGSLRLSCAASGFTFSSYEMNWVRQAPGKGLEWVSYISSSGNTKDYAGSVKGRVTISRDNAKNLLYLQMNSLRAEDTAVYHCARDGGHYDILTGSMSYYYYALDVWGQGTTVTVSS
VL: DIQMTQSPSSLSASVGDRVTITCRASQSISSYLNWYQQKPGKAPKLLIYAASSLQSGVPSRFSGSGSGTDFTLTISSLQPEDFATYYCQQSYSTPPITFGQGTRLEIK
notes: as for B1
B6: H4sH15462P (antibody, V domains shown)
VH: QVQLVQSGAEVKKPGASVKVSCKASGYTFTNYYIHWVRQAPGQGLDWMGIINPGGGNTNYAQKFLGRVTMTRDTSTTTVYMELSSLRSEDTAIYYCARENWNSYFDNWGQGTLVTVSS
VL: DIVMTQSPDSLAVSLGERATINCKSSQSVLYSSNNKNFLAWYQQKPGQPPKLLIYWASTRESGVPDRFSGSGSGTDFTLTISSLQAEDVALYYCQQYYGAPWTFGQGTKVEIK
notes: H4sH = human IgG4 Fc with 2 or more amino acid changes as disclosed in US20140243504
B7: H4H17828P2 (antibody, human IgG4, V domains shown)
VH: EVQLVESGGGLVQPGGSLRLSCAASGFTFKTYAMSWVRQAPGRGLEWVSGISGSGSTSYYADSVKGRFTISRDNYKKTLSLQMNSLRAEDTAVYYCALDIMATVGGLFNNWGQGTLVTVSS
VL: not shown
notes: as for B1
B8: H4H15462P (antibody, human IgG4, V domains shown)
VH: B6 VH
VL: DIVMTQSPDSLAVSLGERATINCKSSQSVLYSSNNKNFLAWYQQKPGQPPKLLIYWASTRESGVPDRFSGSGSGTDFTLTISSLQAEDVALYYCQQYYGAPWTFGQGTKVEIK
notes: as for B1
B9: H4sH15479P (antibody, V domains shown)
VH: QVQLQQWGAGLLNPSETLSLTCAVYGGAFSDYYWNWIRQPPGKGLEWIGEINHRGSTNYNPSLKSRVTISVDTSKNQFSLRMSSVTAADAAVYYCARGEDYDIWNGYYQEKWGQGTLVTVSS
VL: B1 VL with V29I, S31T, V48I, G50D, N53K, A84V, F85V, Q89H

The binders below were run against T1, human LAG3 chimera (extracellular domain of human LAG3 and trans-membrane/cytoplasmic domain of human CD300a) … (human, UniProt P18627 23-450; Q9UGN4 181-299, limits assumed) (assay: cell-based or functional assay).
T1 sequence (looked up): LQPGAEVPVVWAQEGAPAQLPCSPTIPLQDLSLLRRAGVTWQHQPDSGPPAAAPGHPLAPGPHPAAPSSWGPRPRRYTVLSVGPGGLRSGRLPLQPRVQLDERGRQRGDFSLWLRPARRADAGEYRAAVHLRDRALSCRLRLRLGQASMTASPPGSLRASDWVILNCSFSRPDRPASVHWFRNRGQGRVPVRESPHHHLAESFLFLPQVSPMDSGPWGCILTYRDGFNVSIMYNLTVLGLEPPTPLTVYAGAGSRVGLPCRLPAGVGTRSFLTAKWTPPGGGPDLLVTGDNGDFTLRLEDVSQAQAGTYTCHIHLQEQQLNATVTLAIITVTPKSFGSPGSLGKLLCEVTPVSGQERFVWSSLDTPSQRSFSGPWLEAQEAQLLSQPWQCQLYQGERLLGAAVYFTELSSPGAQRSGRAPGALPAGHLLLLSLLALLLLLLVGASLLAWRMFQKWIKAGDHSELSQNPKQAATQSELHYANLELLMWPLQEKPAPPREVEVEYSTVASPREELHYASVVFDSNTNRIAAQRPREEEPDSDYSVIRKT

Binder	EC50, AP1-Luc signaling, bispecific mode [nM]	EC50, AP1-Luc signaling, peptide mode [nM]
B1	1.07	1.01
B2	3.69	2.54
B3	> 100	2.12
B4	> 100	0.688
B5	266	8.83
B6	0.148	0.486
B7	> 100	4.91
B8	0.224	0.344
B9	0.0872	0.135

These binders were tested against T2, recombinant human LAG3 expressed with a C-terminal myc-myc-hexahistidine tag (human, UniProt P18627 29-450) (assay: SPR, mAb captured, 25 C).
T2 construct: also called hLAG3-mmh; hLAG3.mmh
Method: (§1) The BiaCore sensor surface was derivatized with either a polyclonal rabbit anti-mouse antibody (GE, # BR-1008-38) or with a monoclonal mouse anti-human Fc antibody (GE, # BR-1008-39) to capture approximately 50-85 RUs of anti-LAG3 monoclonal antibodies, expressed with either a mouse Fc or a human Fc, respectively. […] The binding of the LAG3 reagents to captured monoclonal antibodies was monitored for 4 minutes while their dissociation from the antibodies was monitored for 8 minutes in HBST running buffer (0.01 M HEPES pH 7.4, 0.15 M NaCl, 3 mM EDTA, 0.05% v/v Surfactant P20). Experiments were performed at 25° C. and 37° C. Kinetic association (kₐ) and dissociation (kd) rate constants were determined by processing and fitting the data to a 1:1 binding model using Scrubber 2.0c curve fitting software. Binding dissociation equilibrium constants (KD) and dissociative half-lives (t_{1/2}) were then calculated from the kinetic rate constants as: KD (M)=kd/kₐ and t_{1/2} (min)=[ln2/(60*kd)].

Binder	Kd [nM]	koff [s⁻¹]	kon [M⁻¹ s⁻¹]	t1/2 [min]
B1	0.214	8.8e-05	411000	131
B2	1.97	0.00037	188000	31.2
B3	0.391	0.000443	1.13e+06	26
B4	0.429	0.000447	1.04e+06	25.8
B5	10.2	0.00457	450000	2.5
B6	6.51	0.00697	1.07e+06	1.7
B7	2.31	0.00141	612000	8.2
B8	5.75	0.0054	939000	2.1
B9	0.0487	5.98e-05	1.23e+06	193

Target: T3, recombinant human LAG3 expressed with a C-terminal mouse IgG2a mFc tag (human)
T3 construct: Called dimeric; also called hLAG3-mFc; hLAG3 dimer
T3 chain: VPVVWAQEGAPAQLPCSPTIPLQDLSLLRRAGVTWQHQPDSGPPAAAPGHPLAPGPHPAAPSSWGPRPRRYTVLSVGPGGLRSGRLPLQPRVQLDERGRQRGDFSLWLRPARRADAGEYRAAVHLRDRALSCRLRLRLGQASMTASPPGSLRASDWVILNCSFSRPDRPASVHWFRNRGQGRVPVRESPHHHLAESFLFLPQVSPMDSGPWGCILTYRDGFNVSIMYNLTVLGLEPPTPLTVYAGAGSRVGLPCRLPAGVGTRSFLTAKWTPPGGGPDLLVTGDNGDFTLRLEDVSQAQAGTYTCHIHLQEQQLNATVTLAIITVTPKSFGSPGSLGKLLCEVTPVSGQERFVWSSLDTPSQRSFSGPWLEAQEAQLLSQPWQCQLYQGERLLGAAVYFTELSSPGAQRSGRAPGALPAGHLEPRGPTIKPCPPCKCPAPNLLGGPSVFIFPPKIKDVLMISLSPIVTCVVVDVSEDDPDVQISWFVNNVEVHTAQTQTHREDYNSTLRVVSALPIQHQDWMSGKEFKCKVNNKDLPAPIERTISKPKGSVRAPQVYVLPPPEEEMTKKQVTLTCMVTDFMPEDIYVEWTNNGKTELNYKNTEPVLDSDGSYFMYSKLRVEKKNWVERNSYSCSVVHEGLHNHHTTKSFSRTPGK
Assay: SPR, mAb captured, 25 C
Method: as §1

Binder	Kd [nM]	koff [s⁻¹]	kon [M⁻¹ s⁻¹]	t1/2 [min]
B1	≤ 0.0104	≤ 1e-05	958000	≥ 1160
B2	≤ 0.00745	≤ 1e-05	1.34e+06	≥ 1160
B3	0.124	0.00018	1.45e+06	64.2
B4	0.174	0.000218	1.26e+06	52.9
B5	0.817	0.000564	691000	20.5
B6	0.814	0.0019	2.34e+06	6.1
B7	0.245	0.00046	1.88e+06	25.1
B8	1.01	0.00203	2.02e+06	5.7
B9	≤ 0.00328	≤ 1e-05	3.05e+06	≥ 1160

From patent publication US20170101472A1 (Regeneron, published 2017)
